Source: patent publication US20260069689A1 (Regeneron, published 2026)
Where “and” joins values, the source holds several entries; their conditions need not be identical. Identical values can stand only once.

B1: mAb14312 (antibody, V domains shown)
VH: EVQLVESGGGLVQPGGSLRLSCAASGFTVSRSYMTWVRQAPGKGLEWVSVIFTGGRTDHADSVKGRFTISRHNSKNTLYLQMNSLRTEDTAVYYCARVAIVGATGAFDIWGQGTMVTVSS
VL: QSVLTQPPSVSGAPGQRVTISCTGSSSNIGAGDDVHWYQQLPGTAPKLLIYGNSNRPSGVPDRFSGSKSGTSASLAITGLQAEDEADYYCQSYDSSLSGSVVFGGGTKLTVLG
B2: mAb14315 (antibody, V domains shown)
VH: QVQLVQSGAEVKKPGSSVKVSCKASGDTFSTYAINWVRQAPGQGLEWMGRFIHIFGTANYAQKFQGRVTITADESTSTAYMELRSLRSEDTAVYYCARDGVDYGDYRPDYWGQGTLVTVSS
VL: EIVLTQSPGTLSLSPGERATLSCRASQSVSSNYLAWYQQKPGQAPRLLIYGASSRATGIPERFSGSGSGTDFTLTISRLEPEDFAVYYCQQYGSSLYTFGQGTKLEIKR
B3: mAb15160 (antibody, V domains shown)
VH: EVQLVESGGGLVQPGGSLRLSCSASGFTFSRYAMYWVRQAPGKGLEYVSAISSDGGSTYDADSVKGRFTISRANSKNTLYLQMSSLRAEDTAVYYCVKGLRELLYYYYGMDVWGQGTTVTVSS
VL: DIQMTQSPSSLSASVGDRVTITCRAGQSISSFLNWYQQKPGKAPKLLIYAASSLQSGVPSRFSGSGSGTDFTLTISSLQPEDFATYYCQQSYITPFTFGPGTKVDIKR
B4: mAb15163 (antibody, V domains shown)
VH: EVQLVETGGGLIQPGESLRLSCAASGFIVSTNYMNWVRQAPGKGLEWVSVIYRGGSTYYADSVKGRFTISRDNSKNTLFLQMNSLRAEDTAVYYCARGHEDFDYDTPASGAFDIWGQGTMVTVSS
VL: QSALTQPPSASGSPGQSVTISCTGTSSDVGGHNYVSWYQQHPGKAPKVMIYEVSKRPSGVPDRFSGSKSGNTASLTVSGLQAEDEADYYCSSYAGSNKFVFGTGTKVTVLG
B5: mAb15159 (antibody, V domains shown)
VH: EVQLVESGGGLVQPGGSLRLSCAASGITVSSNYMTWVRQAPGKGLEWVSLIYSGGSTFYADSVRGRFTISRDNSKNTLYLQMNSLRAEDTAVYYCARDLVVYGMDVWGQGTTVTVSS
VL: DIQLTQSPSSLSASVGDRVTITCRASQGISSYLAWYQQKPGKAPKLLIYAASTLQSGVPSRFSGSGSGTDFTLTISSLQPEDFATYYCQHLNSDPHTFGQGTKLEIKR
B6: mAb15170 (antibody, V domains shown)
VH: EVQLVESGGGLVQPGGSLRLSCAATGITVSSNYMSWVRQAPGKGLEWVSLIYSGGSTFYADSVKGRFTISRHNSKNTLYLQMSSLRAEDTAVYYCARDLVDFGMDVWGQGTTVTVSS
VL: DIQLTQSPSSLSASVGDRVTITCRASQGISNYLAWYQQKPGKAPKLLIYAASTLQSGVPSRFSGSGSGTDFTLTISSLQPEDFGTYYCQQLNSDSPTFGQGTKVEIKR
B7: mAb15150 (antibody, V domains shown)
VH: EVQLVETGGGLIQPGGSLRLSCAAPGFIVSSNYMSWVRQAPGKGLEWVSLLYPGGSTYYADSVKGRFTISRDNSKNTLYLQMNSLRADDTAVYYCARVLPIVEDHFDYWGQGTLVTVSS
VL: DIQLTQSPSFLSASVGDRVTITCRASQGMSSYLAWYQKKPGKAPKLLIYGATILQSGVPSRFSGSGSGTEFTLTISSLQPEDFATYYCQQLNSDPLYMYTFGQGTKLEIKR
B8: mAb15164 (antibody, V domains shown)
VH: EVQLVESGGGLVQPGGSLRLSCAASGFAVSSNYMTWVRQAPGKGLEWVATIYSGDSTYYADSVKGRFTISRHNSKNTLSLQMNSLRADDTAIYYCARLSGVLSGTYNGAFDIWGQGTMVTVSS
VL: QSALTQPASVSGSPGQSITISCTGTSSDFGNYNIVSWYQQHPGQAPKVMIYEGNKRPSGVSNRFSGSKSGHTASLTISGLQAEDEADYYCSSYAGSSTWVFGGGTKLTVLG
B9: mAb15166 (antibody, V domains shown)
VH: EVQLVESGGGLVQPGGSLRLSCAASGFTVTSNYMSWVRQAPGKGLEWVSAIYSGESTYYADSVKGRFTISRDSSKNTLYLQMNSLRVEDTAVYYCASIHDYSNYVGGFDPWGQGTLVTVSS
VL: QSALTQPASVSGSPGQSITISCTGPSSDFGSYNLVSWYQQHPGKAPKLMIYEGTKRPSGVSNRFSGSKSGNTASLTISGLQAEDEADYYCSSYAGSSTWVFGGGTKLTVLG
B10: mAb15165 (antibody, V domains shown)
VH: EVQLVESGGGLVQPGGSLRLSCAASGFTVSSNYMSWVRQAPGKGLEWVSAIYSGDSTYYADSVKGRFTISKDNSKNTLYLQMNSLRGEDTAVYYCARLGGALQAYDGAFDYWGQGTLATVSS
VL: QSALTQPASVSGSPGQSITISCTGTSSDFGSYNLVSWYQQHPGKAPKLMIYEGNKRPSGVSIRFSGSKSGNTASLTISGLQAEDEADYYCSSYAGSSTWVFGGGTKLTVLG
B11: mAb15156 (antibody, V domains shown)
VH: QLQLQESGPGLVKSSETLSLTCTVSASITGSTYYWGWIRQPPGKGLEWIGSIYYSGTTYYKASLKSRVTISVDTSKNQFSLKLTSVTVADTAVYYCVSHLLGNYHKYGMDVWGQGTTVTVSS
VL: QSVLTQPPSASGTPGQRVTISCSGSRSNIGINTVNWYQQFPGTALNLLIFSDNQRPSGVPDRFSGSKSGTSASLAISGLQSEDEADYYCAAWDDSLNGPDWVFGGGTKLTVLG
B12: mAb14313 (antibody, V domains shown)
VH: EVQLVESGGGLVQPGRSLRLSCVASGFTFDDSAMHWVRQPPGKGLEWVSGISWNSGIIGYAESVKGRFIISRDNAKNSLFLHMRGLRPEDTAVYYCARDRLELSYYYYGMDVWGQGTTVTVSS
VL: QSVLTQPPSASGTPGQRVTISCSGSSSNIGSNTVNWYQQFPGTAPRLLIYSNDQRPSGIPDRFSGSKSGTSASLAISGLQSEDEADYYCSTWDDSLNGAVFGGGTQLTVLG
B13: mAb15158 (antibody, V domains shown)
VH: EVQLVESGGGLVQPGGSLRLSCAASGFSFSSNWMSWVRQAPGKGLEWVGNINQDGSEKYYVDSVEGRFTISRDNAKKSLYLQMNSLRAEDTAVYYCARDLGVLWFGDFVDWGQGALVTVSS
VL: DIQMTQSPSSLSASVGDRVTITCRASQAISNSLAWYQQKPGKAPKLLLYAASTLESGVPSRFSGSGSGTDYTLTISSLQPEDFATYYCLQYYGSPRTFGQGTKVEIKR
B14: mAb15162 (antibody, V domains shown)
VH: EVQLVETGGGLIQPGGSLRLSCAASEFIVSRNYMSWVRQAPGKGLEWVSLIYSGGSTYYADSVKGRFTISRDNSKNILYLQMNSLRAEDTAVYYCARDRGGISDYWGQGTLVTVSS
VL: DIQMTQSPSSLSASVGDRVTITCQASQDINKYLNWFQQKPGKAPKLLIYDASNLETGVPSRFSGSGSGTDFTFTISSLQPEDIATYYCQQYDNLPRTFGQGTKLEIKR
B15: mAb14294 (antibody, V domains shown)
VH: EVQLVESGGGLVQPGGSLRLSCAASGFTFSNHWMDWVRQAPGKGLVWVSRINSDGSSTDYADSVRGRFTMSRDNAKNTLYLQMSSLRAEDTAVYYCAREGMIFGAVIIPGWYFDLWGRGALVTVSS
VL: EIVLTQSPGTLSLSPGERATLSCRASQSVSSSQLAWYQQKPGQAPRLLIYGASSRATGIPDRFSGSGSGTDFTLTISRLEPEDFAVYYCQQYDSFGQGTKLEIKR
B16: mAb15161 (antibody, V domains shown)
VH: EVQLVESGGGLVQPGGSLRLSCAASGFTFSSYEMNWVRQAPGKGLEWVSYISSSGSILYYADSVKGRFTASRDNAKNSLYLQMNSLRAEDTGVYYCARREYQLLRPFEFWGQGTLVTVSS
VL: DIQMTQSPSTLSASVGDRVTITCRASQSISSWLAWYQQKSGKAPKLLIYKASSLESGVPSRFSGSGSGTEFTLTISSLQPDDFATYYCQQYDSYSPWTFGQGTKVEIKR
B17: mAb15157 (antibody, V domains shown)
VH: EVQLVESGGALVQPGGSLRLSCAASGFPFTIYAMTWVRQAPGKGLEWVSVITGSGDSTYYADSVKGRFTISRDNSKNTLYLQMNSLRAEDTAVYYCVKTGEGFFYYYYGMDVWGQGTTVTVSS
VL: QSVLTQPPSVSAAPGQKVTISCSGSSSNIGNSYISWYQQLPGTAPKLLIYVNNKRPSGIPDRFSGSKSGTSATLGITGLQTGDEADYYCGTWDSSLSAGVFGSGTKVTVLG
B18: mAb15151 (antibody, V domains shown)
VH: QVQLVESGGGVVQPGRSLRLSCAASGFVFNSYGMHWVRQAPGKGLEWVAVLWYEGSKNYYADSVKGRFTISRDNSKNTLYLQMNSLRAEDTAVYYCARHGSGSFFGYYLDYWGQGTLVTVSS
VL: DIQMTQSPSSLSASVGDRVTITCRASHNINDFLNWYQQKPGKAPRLLIYAASSLQSGVPSRFSGSGSGTDFTLTISSLQPEDFATYYCQESYTTPPTFGQGTKLEIKR

Columns and labels:
[1] = molecular target: SARS-CoV-2 RBD.mmh (Spike amino acids Arg319-Phe541 with C-terminal myc-myc-6-Histidine tag) (SARS-CoV-2, UniProt P0DTC2 319-541)
[2] = molecular target: T1, SARS-COV-2 RBD-MMH (SARS-COV-2 RBD extracellular domain with C-terminal myc-myc-hexahistidine tag) (SARS-CoV-2)
[3] = molecular target: T1, SARS-COV-2 RBD-MMH (SARS-COV-2 RBD …); test: SPR 37C, mAb captured, pH 7.4 vs pH 6.0

Binder | IC50 [1] [nM] | koff [2] | t½ at pH 6.0 [2] [min] | t½ at pH 7.4 [2] [min] | t½ Ratio of pH 7.4 to pH 6.0 [3]
B1 | 0.134 | 0.00177 s⁻¹ | 6.5 | 13.5 | 2.1
B2 | 17.2 | 0.000946 s⁻¹ | 12.2 | 11.8 | 1
B3 | 0.204 | 0.00283 s⁻¹ | 4.1 | 5.3 | 1.3
B4 | 0.217 | 0.00104 s⁻¹ | 11.1 | 23.4 | 2.1
B5 | 0.156 | 0.000412 s⁻¹ | 28.1 | 50 | 1.8
B6 | 0.102 | 8e-05 s⁻¹ | 144 | 108 | 0.7
B7 | 0.254 | 3.81e-05 s⁻¹ | 304 | 103 | 0.3
B8 | 0.245 | 0.0021 s⁻¹ | 5.5 | 5.1 | 0.9
B9 | 0.475 | 0.0301 s⁻¹ | 0.4 | 0.4 | 1
B10 | 0.189 | 0.00128 s⁻¹ | 9.1 | 7.1 | 0.8
B11 | 0.269 | 0.0097 s⁻¹ | 1.2 | 1.7 | 1.4
B12 | 16.4 | 0.00251 s⁻¹ and 0.0041 s⁻¹ | 2.8 | 4.6 | 1.6
B13 | 0.309 | 0.00029 s⁻¹ | 40.1 | 37 | 0.9
B14 | 0.756 | 0.00354 s⁻¹ | 3.3 | 3.9 | 1.2
B15 | 0.244 | 0.000565 s⁻¹ | 20.5 | 12.6 | 0.6
B16 | 0.584 | 0.00107 s⁻¹ | 10.8 | 10.3 | 0.9
B17 | 0.357 | 0.00766 s⁻¹ | 1.5 | 2.9 | 1.9
B18 | 0.641 | 0.00454 s⁻¹ | 2.5 | 1.7 | 0.7
